Results reported in paper PMC9714796, “Macrophage TGF-β signaling is critical for wound healing with heterotopic ossification after trauma” (JCI Insight, 2022).

B1: TGF-βRII-Fc (muTGFbRII-mFc) (Fc fusion, UniProt Q62312 24-166, looked up)
chain: IPPHVPKSVNSDVMASDNGGAVKLPQLCKFCDVRLSTCDNQKSCMSNCSITAICEKPHEVCVAVWRKNDKNITLETVCHDPKLTYHGFTLEDAASPKCVMKEKKRAGETFFMCACNMEECNDYIIFSEEYTTSSPDLLLVIIQ
B2: Transforming growth factor-β3 (TGF-β3) (ligand, UniProt P10600 301-412, looked up)
chain: ALDTNYCFRNLEENCCVRPLYIDFRQDLGWKWVHEPKGYYANFCSGPCPYLRSADTTHSTVLGLYNTLNPEASASPCCVPQDLEPLTILYYVGRTPKVEQLSNMVVKSCKCS
notes: TGF-β3 ligand used as SPR analyte

Experiments:
[1] = target: B2; test: cell-based or functional assay
[2] = target: Transforming growth factor-β1 (TGF-β1) (UniProt P01137 279-390); test: cell-based or functional assay
Chain of Transforming growth factor-β1 (TGF-β1) (P01137 279-390): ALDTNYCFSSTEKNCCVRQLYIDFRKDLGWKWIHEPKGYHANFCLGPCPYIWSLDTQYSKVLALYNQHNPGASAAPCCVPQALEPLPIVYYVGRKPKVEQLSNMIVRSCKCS

[3] = target: B1; test: SPR; Biacore T100; TGF-βRII-Fc captured (~50 RU) by an anti-mouse Fc antibody amine-coupled to a CM5 chip; ligand injected at 0.013-10 nM (0.013-1.1 nM used for the fit); HBS-EP with 350 mM NaCl and 0.5 mg/mL BSA; 1:1 model with mass transport, KD = kd/ka; conditions: both partners purified

IC50 of TGF-βRII-Fc against TGF-β3 (270 pg/mL) signalling in A549 cells with the (CAGA)12 luciferase reporter [1] | IC50 of TGF-βRII-Fc against TGF-β1 (640 pg/mL) signalling in A549 cells with the (CAGA)12 luciferase reporter [2] | Kd [3] | Binder
0.00446 nM | 0.0229 nM | – | B1
– | – | 0.0112 nM | B2
